T1: PTP10D (Drosophila melanogaster, UniProt P35992)
T1 sequence (P35992 1226-1533): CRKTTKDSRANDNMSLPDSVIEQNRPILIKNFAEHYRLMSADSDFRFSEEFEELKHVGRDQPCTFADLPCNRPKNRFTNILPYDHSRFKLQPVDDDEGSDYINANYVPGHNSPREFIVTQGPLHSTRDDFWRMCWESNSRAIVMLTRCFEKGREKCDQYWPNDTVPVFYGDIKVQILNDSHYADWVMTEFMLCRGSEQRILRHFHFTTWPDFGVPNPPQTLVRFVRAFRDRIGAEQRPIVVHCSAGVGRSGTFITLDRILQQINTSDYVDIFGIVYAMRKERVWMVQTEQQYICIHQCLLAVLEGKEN

B1: PTP10D (Drosophila melanogaster) (protein)
chain: CRKTTKDSRANDNMSLPDSVIEQNRPILIKNFAEHYRLMSADSDFRFSEEFEELKHVGRDQPCTFADLPCNRPKNRFTNILPYDHSRFKLQPVDDDEGSDYINANYVPGHNSPREFIVTQGPLHSTRDDFWRMCWESNSRAIVMLTRCFEKGREKCDQYWPNDTVPVFYGDIKVQILNDSHYADWVMTEFMLCRGSEQRILRHFHFTTWPDFGVPNPPQTLVRFVRAFRDRIGAEQRPIVVHCSAGVGRSGTFITLDRILQQINTSDYVDIFGIVYAMRKERVWMVQTEQQYICIHQCLLAVLEGKEN

Experiments:
PTP10D = biological target: T1, PTP10D; assay: crystal structure; type: biochemical
purified protein = substrate: O=[N+]([O-])c1ccc(OP(=O)(O)O)cc1; assay: purified protein

Molecule | Ki (PTP10D) [nM] | Km (purified protein) [mM] | Vmax (purified protein) [µmol/min/mg] | kcat (purified protein) [s⁻¹] | kcat/Km (purified protein) [M⁻¹ s⁻¹]
[O]=[V]([OH])([OH])[OH] [sodium vanadate] | 1530 ± 140 | – | – | – | –
B1 | – | 5.3128 ± 0.05842 | 13.7 | 8.24 ± 0.89 | 1550 ± 160

— publication PMC3667199 (Biochemistry, 2011)
